Measurements: patent publication US20070202134A1, “Muc1 Antagonist Enhancement of Death Receptor Ligand-Induced Apoptosis” (priority 2004, published 2007)

Tested on: HCT116/vector cells
Assay: Apoptosis by analysis of sub-G1 DNA, HCT116/vector cells
Type: cell-based, Human
Conditions: 100 ng/ml TRAIL for 14 hr, without adding CHX
Description: Methods. Apoptotic cells were quantified by analysis of sub-G1 DNA and TUNEL staining. To assess sub-G1 DNA content, cells were harvested, washed with PBS, fixed with 80% ethanol, and incubated in PBS containing 20 ng/ml RNase (Roche) for 60 min at 37° C. Cells were then stained with […] propidium iodide (Sigma) for 30 min at room temperature in the dark. DNA content was analyzed by flow cytometry (EPICS XL-MCL, Coulter Corp.). Apoptotic cells with DNA fragmentation were detected by staining with the In Situ cell death detection kit (TUNEL; Roche Applied Science) and visualized by confocal microscopy (ZEISS LSM510). After staining, cells were analyzed by flow cytometry. Other experimental procedures and methods were as described in Example 1.

B1: TRAIL: TNF-related apoptosis-inducing ligand, rhTRAIL (Calbiochem-Novabiochem) (protein, UniProt P50591 1-281, looked up)
Tumor necrosis factor ligand …: MAMMEVQGGPSLGQTCVLIVIFTVLLQSLCVAVTYVYFTNELKQMQDKYSKSGIACFLKEDDSYWDPNDEESMNSPCWQVKWQLRQLVRKMILRTSEETISTVQEKQQNISPLVRERGPQRVAAHITGTRGRSNTLSSPNSKNEKALGRKINSWESSRSGHSFLSNLHLRNGELVIHEKGFYYIYSQTYFRFQEEIKENTKNDKQMVQYIYKYTSYPDPILLMKSARNSCWSKDAEYGLYSIYQGGIFELKENDRIFVSVTNEHLIDMDHEASFFGAFLVG
B1 was tested, and the induction of apoptosis was “effective in inducing apoptosis”.
